Experiment: soluble fraction after stress (log2 fold change); higher = more stays soluble; pooled small domains, quantitative proteomics
Conditions: stress: 50 degC
Summary of the method: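 Pooled custom libraries of small protein domains were measured in a high-throughput format, with quantitative proteomics as the read-out. Each library was stressed at 50°C. Aggregation propensity is given as the base-two logarithm of the fold change in how much of each protein stays soluble after the stress. Higher values mean a larger share of the protein remains in solution.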

Which “soluble fraction (log2)” value does the source give for “HMHRGEIVDGVIASVNPRSILIDIGGKSDALVHPRELERMSDEDLRSLKPGQDVSVYVIETDSDGTMLVSL” here?
The value was -0.0402.

With “HMQARDQNVDEGKALLEKEFSRLALENLDRDKLANAVNYPTRDDMYAAIGAGDLRVGQVLHQAQQLF” as the sequence, how does the “soluble fraction (log2)” value read?
The value was 0.142.

Which “soluble fraction (log2)” value does the source give for “HMTLTIEDGYVNAKLKTTVEGLAEDSTIKVDSIEYTNAGKNDILTVFVEDKPYRVEKYKINIAPEDS” here?
The value was 0.0185.

Which “soluble fraction (log2)” value does the source give for “HMSDMIGQNIRRLRTEKQMTQKALADKLFVTAQAVSRWENGEVEPSLSTVTEIARIFNVSADEILGI” here?
Its value is -0.0125.

Which “soluble fraction (log2)” value does the source give for “HMDVFTAKTASHIQELREKLGQQAVFGRSDVQNALGLKATRSSALLREMAEHGIIEPVTGYGKGRYHFRS” here?
Its value is 0.225.

For “HMLKPVVLLGARGLTDAVEKEVERALDEHGLIKIHVPSDDREERDEIYTTLADKLNAARIQAIGKMLVLW”, which “soluble fraction (log2)” value is on record?
The value was -0.162.

With “HMEGVSPQTVQEHIRRFIAAEDPASPLSDEALREALGNLGINASRRTVAKYRGEMGIPSSAQRKR” as the sequence, how does the “soluble fraction (log2)” value read?
The value was -0.053.

For “HMTTKYMVLVNWVKEKVRTNELKTGEKLYSEHEFSRMFHMSRQTVRHGISILERENIVERRQGSGTFIKDA”, which “soluble fraction (log2)” value is on record?
Its value is -3.06.

With “HMSTALTPLTTREREVLALMAEGLTNSGIAARLVLTDRTVETHVSRILHKLGLGETTTNEHRRVLAVLRYL” as the sequence, how does the “soluble fraction (log2)” value read?
The value was -1.5.

For “HMSSPDMSLLYSELDVKDSGQIVTILEQRNIPYEVRNNGSQIYIPSNNVQRIRLSLAQEGLPSG”, which “soluble fraction (log2)” value is on record?
The value was -0.0716.

For “HMRGGKGTVPDVTGMDAAAAVRILEKAGMNVAYIRGAGFVAEQTPAAGTKLKKGDKAYITLSWK”, which “soluble fraction (log2)” value is on record?
The value was -0.0707.

For “HMNRIKIYPTPGSKVLSIENINFSLIHDFKILDIFGREVKNFTVSSEKNTKMLVDTSKLSDGLYFIFFNTF”, which “soluble fraction (log2)” value is on record?
The value was -0.58.

Which “soluble fraction (log2)” value does the source give for “HMAANKIDEDRNTELLQVIQNKFPDADAATKKSVKEIMKEHDIPNFKNADDIPTAVLEQIVKVLNQ” here?
The value was 0.323.

With “HMISASDLQTYLKGMDYPARKEDLIVHAQRNNAPESVIAAIRQFSDRTYQSAADVSEEFGKI” as the sequence, how does the “soluble fraction (log2)” value read?
The value was 0.19.

With “HMEKKKVPEVAGQDEAAARNVMTNSGFVVDVEQKEDDNVPAGKVITTAPAGGVEVVEGTKIILYVSKGSN” as the sequence, how does the “soluble fraction (log2)” value read?
The value was 0.113.

With “HMKQGKGIIVVDGKLMPEDFNVATLSLDEVESITVLKGEKAVALYGEKAKEREVLLITTQKG” as the sequence, how does the “soluble fraction (log2)” value read?
Its value is 0.423.

With “HMGFSLEQFGTDPDLKKIVENAFERIITASEGRIFKSDFSSNNSALPLEIFSFLIAVILLKLSGMN” as the sequence, how does the “soluble fraction (log2)” value read?
Its value is -0.142.

With “HMTTEPYILTRMPDGSIKAEPNLNYKGPEQKPGSNIQVKGADGRIYLVPIDGQGKPGKPQLVD” as the sequence, how does the “soluble fraction (log2)” value read?
The value was 0.116.

For “HMAENTKKWDETGRRYRSYIKLEKRLSENTVESYMRDYMQFAHFILRQWDVAPHKVEPQMVERYMAWLYER”, which “soluble fraction (log2)” value is on record?
The value was -0.00858.

Which “soluble fraction (log2)” value does the source give for “HMEGSLQEDKVKEYQDRFKEELSNDLNTANSITVLYDLIKDDTLNGTTKRYLIEDFDKILSLDLIKE” here?
The value was 0.0632.

Which “soluble fraction (log2)” value does the source give for “HMGILPDDVKLNIKEAKKIGFPIMLKAIHGGGGRGMMIVQSEDEFADAMKITKTEAKNSFGNGDLYFEKFF” here?
Its value is 0.238.

With “HMKNNITFSEFLHEVDNGRVIKVNIQGNNITGILADGKSFNTYTPNDPSLIEKLTSKGVSISATPI” as the sequence, how does the “soluble fraction (log2)” value read?
The value was 0.0489.

Which “soluble fraction (log2)” value does the source give for “HMTDDFAGRFNELLIHNQETAVTAATRLEVSPAVITKWRQGKSIPSGEYIKRIVETYHVSADYLLGVIDTP” here?
Its value is -0.445.

Which “soluble fraction (log2)” value does the source give for “HMFKMRVNGKEVIGMAITAKPQANPIDVADEIKKFVIDANTKLPSTMKLEVLYDATGIFRASISEVIS” here?
The value was -0.273.

For “HMGKNYYEILGITKSASEEQVRKAFRGLAMEWHPDRNRSADSEERFKEINEAYQVLIDPKKRQMYDQYGR”, which “soluble fraction (log2)” value is on record?
Its value is 0.388.

With “HMKLINEDLNNEIVFEENKVNLLVIENKKKFVQFIQEIIKQINGDEGKFSLFDINTELKIHDKIDII” as the sequence, how does the “soluble fraction (log2)” value read?
Its value is 0.185.

Which “soluble fraction (log2)” value does the source give for “HMFTNSTSSRQLTNSDDTLRLNISSQTRQMLPNGQPFGGSLSGKLLLVIYGATTRSIPAQTTPEKIVV” here?
Its value is -0.134.

For “HMDIYLTAFKTTSNQVTLNGIARSDLIISEFMRDIRDAKLFGEPVLQVIQNKNLNNVQARVFELVVPL”, which “soluble fraction (log2)” value is on record?
Its value is -0.263.

Which “soluble fraction (log2)” value does the source give for “HMNVEQQNQARENIKRLMEEQGLSQPKLSEKAGIAFGTLSRILRGKQDLTIQTAEKIADALGLSVYDLAE” here?
The value was 0.281.

For “HMDPTEPLFVGVVTAEPYLNIREYPTTQSKDLGDLFPGMHVNVYEIVPNWYRIDDGWVASAWVKRDWGGG”, which “soluble fraction (log2)” value is on record?
Its value is -1.2.

Which “soluble fraction (log2)” value does the source give for “HMDNTFEEVKEKLLDLLKERPLTPAEVSKRMEEDKNILAQVIQYLLEEEIIKTEDGMLSKVIG” here?
The value was -0.0569.

Which “soluble fraction (log2)” value does the source give for “HMVVEGMQFDRGYLSQYMVTDNEKMVADLENPYILITDKKISNIQEILPLLESILQSSRPLLIIADD” here?
The value was -0.214.

Which “soluble fraction (log2)” value does the source give for “HMDADRILHKTLKPRELEIYQLIKAYLEEHSQIANAKVQEISGLSEATTRRYLNIFVEFGLLKTS” here?
Its value is -0.0476.

With “HMRESPYRRVAKFLLLIGTAEAAKIVSRLDQDQVEKVMLELSGIRSVPRDEATVILAEFESLLQQAR” as the sequence, how does the “soluble fraction (log2)” value read?
Its value is -1.47.

With “HMTDSLELADLLRRAIITGEYKPRERLVEMELAQKYSVSRTPVREALKHLEALGLVKMERYKGAMVAD” as the sequence, how does the “soluble fraction (log2)” value read?
Its value is -0.46.

Which “soluble fraction (log2)” value does the source give for “HMSWEQELIEKANEIIDLYPEKRSALGPLLYLAQERDGYISDESIVEISNLVGITEVQVKSVASFYSMYK” here?
The value was -3.57.

For “HMTEEDVVIFSGLSDRDLKMVQTELANSGIKYTLPTSGTVSVPNSEIARAQMVLAMAGIPRS”, which “soluble fraction (log2)” value is on record?
The value was 0.167.

For “HMNIDVAAEKQQLGPNADQIVKGTVTWMQGLVAKGIWSETDFEEGKIFTATADGINAINKIRRYYGEQT”, which “soluble fraction (log2)” value is on record?
The value was -0.0611.

For “HMPEQLLNTRIPLEFAGRRFDASLAELFPDYSRSRLAAWIKDGAARLDGETVAPRHTVRGGEQVEILVRM”, which “soluble fraction (log2)” value is on record?
Its value is -0.238.

For “HMLLPANLTKSQRNIAERVARGQSNLEIAADLNITERTVKAHLTSIYEKTKTGNRLNLALLINLG”, which “soluble fraction (log2)” value is on record?
The value was -0.442.

With “HMSSNLSLHKEGNKIVILGLEGKSVIEVYDLMGRLLSSQTNYNPKQEITLLQPVIIRVTDTQQTKSFKV” as the sequence, how does the “soluble fraction (log2)” value read?
The value was -0.83.

Which “soluble fraction (log2)” value does the source give for “HMFTFEDMDKFESLLTTGLTDVQRRIYSLVTHDGKEYDLIAETLGISVEAVRMHMSRARKKIRENYKKID” here?
Its value is -2.42.

Which “soluble fraction (log2)” value does the source give for “HMIAALEGKQAMVLDQVSLHHGQVKLGGEVWTARPLNDQDVYEPGDRVTVMRIDGATAVVWRN” here?
The value was -0.281.

For “HMVEPIEESISQLSLLLQSLYEDGKSEVSFEELIRSDRSRVSLFLALLFMAQRGNVYLEQEELFGDLRVKN”, which “soluble fraction (log2)” value is on record?
Its value is 0.0123.

With “HMDLKENQHILQISNKGVQMGNVLKDLIIQTLNITNGNQIKAAKLLAISRAKLRYRIEQLGINISGKNI” as the sequence, how does the “soluble fraction (log2)” value read?
The value was -0.215.

With “HMDSVSAVRTTHLNSYVLLLEKDGMAAATISRYIASMKGFFEYLFREHMIEEDPAFTLKPPKV” as the sequence, how does the “soluble fraction (log2)” value read?
Its value is -0.0799.

For “HMANIAVTIPTGSSGDRIADILLQAGLIKDKQDFNQAVIAAGAEGKLRAGYFVIPSNATPAEIISILT”, which “soluble fraction (log2)” value is on record?
Its value is -0.695.

With “HMEQPAPSTTVDILGGGRAALVTANRELGLALADDEIDYLTDSFTQLGRNPVDVELMMFAQA” as the sequence, how does the “soluble fraction (log2)” value read?
The value was 0.00743.

Which “soluble fraction (log2)” value does the source give for “HMTGDIIKQERKKKNLTQIELAKKVGISRNALINYEAGTRIPPISVQLKLADVLGIDILDLK” here?
The value was -0.299.

For “HMKGISRVTMELIIDALKKETEPRTVQWIAEKTGLATQTTYRYLQYMVSEQTVEALNVYGKVVSLKAK”, which “soluble fraction (log2)” value is on record?
Its value is -0.314.

Which “soluble fraction (log2)” value does the source give for “HMPRNEIQRSVLNELVQWIKNNLAKKLTMQALSRFSGYSEWHLFRLFRHYFNMSPMAYIRQQRMQ” here?
The value was -0.265.

With “HMRKDWTPGAFVEAFVNDTPATRSTILAKAVSAGLSRWAADNLLRTADNDGLMVRQGSGKRNEPFTYRRGP” as the sequence, how does the “soluble fraction (log2)” value read?
Its value is -0.196.

For “HMSIGLEGFVGKLGISTSDLRPSGWGEFDAKKLFVVTEGEFVDRKEKIEILSVDGNRILVRKIS”, which “soluble fraction (log2)” value is on record?
The value was -0.751.

With “HMTGLFSPTEQTRHSKTGATLYSVKLAERIERNAFQSLKKRAKEHDGYYSSFTRSFLFDTPEDAEAFRGT” as the sequence, how does the “soluble fraction (log2)” value read?
Its value is -0.27.

With “HMQAPIFMNETDGKWYFREKYLNDNHEIAYRVHPEGYDQMEDALRNSVNALNEFAAEMKELRKQV” as the sequence, how does the “soluble fraction (log2)” value read?
The value was -0.0683.

— the domain aggregation screens of Martell et al. (2025)
